Results taken from US20230086069A1.

The substances below were run against human CD19 on cells (CD20+ B cells of human PBMC; Raji lymphoma cells) (human) (UniProt P15391) (assay: flow cytometry, dose response on human CD20+ lymphocytes).
Sequence of human CD19 on cells (CD20+ B cells of human PBMC; Raji lymphoma cells) (human) (P15391 20-556): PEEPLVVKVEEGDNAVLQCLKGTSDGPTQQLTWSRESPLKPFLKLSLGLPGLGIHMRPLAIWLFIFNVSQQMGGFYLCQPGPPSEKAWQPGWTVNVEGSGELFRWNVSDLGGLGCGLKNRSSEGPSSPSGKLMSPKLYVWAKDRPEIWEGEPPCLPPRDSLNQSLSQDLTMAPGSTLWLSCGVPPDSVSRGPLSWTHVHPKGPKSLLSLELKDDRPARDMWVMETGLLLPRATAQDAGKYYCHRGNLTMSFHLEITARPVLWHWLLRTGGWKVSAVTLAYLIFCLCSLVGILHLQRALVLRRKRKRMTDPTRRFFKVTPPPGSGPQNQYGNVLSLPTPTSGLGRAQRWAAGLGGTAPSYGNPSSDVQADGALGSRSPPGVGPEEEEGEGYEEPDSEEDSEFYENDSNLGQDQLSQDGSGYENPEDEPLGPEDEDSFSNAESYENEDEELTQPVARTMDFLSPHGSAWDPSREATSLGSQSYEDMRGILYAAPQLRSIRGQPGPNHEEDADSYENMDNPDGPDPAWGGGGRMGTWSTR

Going from SJ25C (mouse anti-human CD19 antibody) to HIB19 (mouse anti-human CD19 antibody), the EC50 falls from 0.209 µg/mL to 0.0544 µg/mL (3.8-fold).

In the case of 4G7 (mouse anti-human CD19 antibody), the EC50 was 0.549 µg/mL.
